{"source": "paper PMC5344670", "about": "“Cryo-EM structure of the ATP-sensitive potassium channel illuminates mechanisms of assembly and gating” (eLife, 2017)", "biological_target": "the molecule itself", "assay": "cryo-EM structure; digitonin-solubilised KATP channel complex in the presence of 1 mM ATP and 1 µM glibenclamide; single-particle analysis with C4 symmetry imposed"}
{"protein": "rat Kir6.2 (natural protein, Kir6.2, rat, inwardly rectifying K+ channel family; the final model holds residues 32-356; The eLife digest calls it the mouse form; results and methods say rat; source: INS-1 cells clone 832/13 (rat insulinoma), co-infected with recombinant adenoviruses; purified with f-SUR1 (digitonin, anti-FLAG M2 agarose, FLAG peptide elution, size exclusion chromatography)) MLSRKGIIPEEYVLTRLAEDPTEPRYRTRERRARFVSKKGNCNVAHKNIREQGRFLQDVFTTLVDLKWPHTLLIFTMSFLCSWLLFAMVWWLIAFAHGDLAPGEGTNVPCVTSIHSFSSAFLFSIEVQVTIGFGGRMVTEECPLAILILIVQNIVGLMINAIMLGCIFMKTAQAHRRAETLIFSKHAVITLRHGRLCFMLRVGDLRKSMIISATIHMQVVRKTTSPEGEVVPLHQVDIPMENGVGGNSIFLVAPLIIYHVIDSNSPLYDLAPSDLHHHQDLEIIVILEGVVETTGITTQARTSYLADEILWGQRFVPIVAEEDGRYSVDYSKFGNTVKVPTPLCTARQLDEDRSLLDALTLASSRGPLRKRSVAVAKAKPKFSISPDSLS", "values": [{"measurement": "stoichiometry N", "value": 4}]}
